In the supplement of paper PMC10567573 one finds protein stability index data, which are given here for 94 variants.

B1: CLK3 (parent)
chain: FGEDYYGPSRSRHRRRSRERGPYR
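Note: lentivirally expressed fusions sorted by FACS into six bins by GFP to DsRed ratio, PSI derived from sequencing read proportions per bin multiplied by bin number.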

In this series the parent is B1. As to the kind of experiment: protein stability index of a GFP-peptide fusion (GPS, HEK-293T) (PSI 1-6); higher = more stable. As to conditions: c terminus: a fixed tail appended.
In the case of FGEDYYGPSRSRHRRRSRERGPPR [Y23P], the protein stability index is 2.61. Consider FGEDYYGPSRSRHRRRSRERGPAR [Y23A], for which the protein stability index is 2.19.

On to FGEDYYGPSRSRHRRRSRERGPDR [Y23D], for which the protein stability index was found to be 2.89. In the case of FGEDYYGPSRSRHRRRSRERGPWR [Y23W], the protein stability index is 2.46. As for FGEDYYGPSRSRHRRRSRERGPMR [Y23M], the figure is 2.48; as for FGEDYYGPSRSRHRRRSRERGPLR [Y23L], 2.16; as for FGEDYYGPSRSRHRRRSRERGPTR [Y23T], 2.27. To FGEDYYGPSRSRHRRRSRERGPRR [Y23R] belongs 2.11. To FGEDYYGPSRSRHRRRSRERGPKR [Y23K] belongs 2.3; to FGEDYYGPSRSRHRRRSRERGPQR [Y23Q], 3.46; to FGEDYYGPSRSRHRRRSRERGPIR [Y23I], 2.31.

For the variant FGEDYYGPSRSRHRRRSRERGPSR [Y23S], the protein stability index stood at 2.62.

As for FGEDYYGPSRSRHRRRSRERGPNR [Y23N], the protein stability index turned out to be 2.67. As for FGEDYYGPSRSRHRRRSRERGPCR [Y23C], the figure is 2.47. As for FGEDYYGPSRSRHRRRSRERGPER [Y23E], the figure is 2.35. To FGEDYYGPSRSRHRRRSRERGPGR [Y23G] belongs 2.43; to FGEDYYGPSRSRHRRRSRERGPVR [Y23V], 3.15.

For FGEDYYGPSRSRHRRRSRERGPHR [Y23H], the protein stability index was 2.38.

As to FGEDYYGPSRSRHRRRSRERGPFR [Y23F], the protein stability index worked out at 1.65. As for FGEDYYGPSRSRHRRRSRMRGPYR [E19M], the figure is 4.15; as for FGEDYYGPSRSRHRRRSRVRGPYR [E19V], 4.11. As for FGEDYYGPSRSRHRRRSRKRGPYR [E19K], the figure is 4.05; as for FGEDYYGPSRSRHRRRSRNRGPYR [E19N], 3.95; as for FGEDYYGPSRSRHRRRSRSRGPYR [E19S], 3.65. For the variant FGEDYYGPSRSRHRRRSRRRGPYR [E19R], the protein stability index is 4.55. Take FGEDYYGPSRSRHRRRSRIRGPYR [E19I]: the protein stability index was 3.96. To FGEDYYGPSRSRHRRRSRDRGPYR [E19D] belongs 3.87; to FGEDYYGPSRSRHRRRSRLRGPYR [E19L], 3.42; to FGEDYYGPSRSRHRRRSRTRGPYR [E19T], 3.81. To FGEDYYGPSRSRHRRRSRQRGPYR [E19Q] belongs 3.2; to FGEDYYGPSRSRHRRRSRYRGPYR [E19Y], 3.94; to FGEDYYGPSRSRHRRRSRHRGPYR [E19H], 4.09. To FGEDYYGPSRSRHRRRSRPRGPYR [E19P] belongs 4.39; to FGEDYYGPSRSRHRRRSRFRGPYR [E19F], 4.17. In the case of FGEDYYGPSRSRHRRRSRWRGPYR [E19W], the protein stability index is 4.71.

With FGEDYYGPSRSRHRRRSRCRGPYR [E19C], the protein stability index worked out at 4.35. As for FGEDYYGPSRSRHRRRSRGRGPYR [E19G], the figure is 4.06; as for FGEDYYGPSRSRHRRRSRECGPYR [R20C], 2.72. For the variant FGEDYYGPSRSRHRRRSREQGPYR [R20Q], the protein stability index was 2.79.

On to FGEDYYGPSRSRHRRRSREMGPYR [R20M], for which the protein stability index worked out at 2.3.

On to FGEDYYGPSRSRHRRRSREAGPYR [R20A], for which the protein stability index was found to be 2.47. As for FGEDYYGPSRSRHRRRSREDGPYR [R20D], the figure is 2.56; as for FGEDYYGPSRSRHRRRSREYGPYR [R20Y], 2.3; as for FGEDYYGPSRSRHRRRSREGGPYR [R20G], 2.21. In the case of FGEDYYGPSRSRHRRRSRETGPYR [R20T], the protein stability index worked out at 2.39. To FGEDYYGPSRSRHRRRSRELGPYR [R20L] belongs 2.45; to FGEDYYGPSRSRHRRRSREIGPYR [R20I], 2.21. On to FGEDYYGPSRSRHRRRSRENGPYR [R20N], for which the protein stability index came to 2.11. Regarding FGEDYYGPSRSRHRRRSREFGPYR [R20F], the protein stability index was determined as 3.04. As for FGEDYYGPSRSRHRRRSREHGPYR [R20H], the figure is 2.44.

On to FGEDYYGPSRSRHRRRSREEGPYR [R20E], for which the protein stability index came to 2.27.

In the case of FGEDYYGPSRSRHRRRSREKGPYR [R20K], the protein stability index stood at 2.62. To FGEDYYGPSRSRHRRRSREPGPYR [R20P] belongs 2.65; to FGEDYYGPSRSRHRRRSREWGPYR [R20W], 2.85. To FGEDYYGPSRSRHRRRSREVGPYR [R20V] belongs 2.22; to FGEDYYGPSRSRHRRRSRESGPYR [R20S], 2.24; to FGEDYYGPSRSRHRRRSRERGCYR [P22C], 2.8. As for FGEDYYGPSRSRHRRRSRERGIYR [P22I], the figure is 2.2.

For FGEDYYGPSRSRHRRRSRERGKYR [P22K], the protein stability index was 2.19. To FGEDYYGPSRSRHRRRSRERGWYR [P22W] belongs 3.26. Take FGEDYYGPSRSRHRRRSRERGDYR [P22D]: the protein stability index came to 2.8. As for FGEDYYGPSRSRHRRRSRERGMYR [P22M], the figure is 2.54; as for FGEDYYGPSRSRHRRRSRERGVYR [P22V], 3.03; as for FGEDYYGPSRSRHRRRSRERGLYR [P22L], 2.37. To FGEDYYGPSRSRHRRRSRERGEYR [P22E] belongs 2.05; to FGEDYYGPSRSRHRRRSRERGGYR [P22G], 2.54; to FGEDYYGPSRSRHRRRSRERGTYR [P22T], 2.82. As for FGEDYYGPSRSRHRRRSRERGQYR [P22Q], the figure is 2.65; as for FGEDYYGPSRSRHRRRSRERGHYR [P22H], 2.65; as for FGEDYYGPSRSRHRRRSRERGNYR [P22N], 2.54.

On to FGEDYYGPSRSRHRRRSRERGSYR [P22S], for which the protein stability index is 2.21.

As for FGEDYYGPSRSRHRRRSRERGYYR [P22Y], the protein stability index is 2.39. To FGEDYYGPSRSRHRRRSRERGRYR [P22R] belongs 1.97; to FGEDYYGPSRSRHRRRSRERGFYR [P22F], 2.62.

With FGEDYYGPSRSRHRRRSRERGAYR [P22A], the protein stability index was 2.82. In the case of FGEDYYGPSRSRHRRRSRERSPYR [G21S], the protein stability index was 1.41. As for FGEDYYGPSRSRHRRRSRERWPYR [G21W], the figure is 4.06; as for FGEDYYGPSRSRHRRRSRERHPYR [G21H], 3.13; as for FGEDYYGPSRSRHRRRSRERTPYR [G21T], 2.53. To FGEDYYGPSRSRHRRRSRERKPYR [G21K] belongs 3.15. As for FGEDYYGPSRSRHRRRSRERPPYR [G21P], the figure is 2.95. Turning to FGEDYYGPSRSRHRRRSRERMPYR [G21M], the protein stability index was 3.38. To FGEDYYGPSRSRHRRRSRERLPYR [G21L] belongs 2.91; to FGEDYYGPSRSRHRRRSRERFPYR [G21F], 3.47.

Turning to FGEDYYGPSRSRHRRRSREREPYR [G21E], the protein stability index was determined as 2.11. As for FGEDYYGPSRSRHRRRSRERCPYR [G21C], the figure is 3.2; as for FGEDYYGPSRSRHRRRSRERDPYR [G21D], 2.47; as for FGEDYYGPSRSRHRRRSRERQPYR [G21Q], 2.8. As for FGEDYYGPSRSRHRRRSRERVPYR [G21V], the figure is 2.39; as for FGEDYYGPSRSRHRRRSRERRPYR [G21R], 3.2. To FGEDYYGPSRSRHRRRSRERIPYR [G21I] belongs 2.93; to FGEDYYGPSRSRHRRRSRERAPYR [G21A], 2.69; to FGEDYYGPSRSRHRRRSRERYPYR [G21Y], 3.37. With FGEDYYGPSRSRHRRRSRERNPYR [G21N], the protein stability index came out at 2.33.
